Results: paper PMC7608827 (Science Advances, 2020)
Where two headings read alike, the source gives them in different places.

B1: CaDoc0917, dockerin module of Clostridium acetobutylicum (domain or fragment, UniProt Q97KK2 477-537, looked up)
chain: NTILGDLNDDGVVNGRDIVMMRQYLAGKTVSGIDKNALDINGDGAVNGRDLMELIKKVSNN
B2: CaCohA2, cohesin module of Clostridium acetobutylicum (domain or fragment, UniProt Q977Y4 611-759, looked up)
chain: VKNETVKLSVGTVSGNPGDTVKVPVTISQVSTPVGLICMDISYDASKFTVKDVLPNTDLVKDTDNYSFIVNTSTPGKISITFTDPTLANYPISVDGILAYLDFIINSNATAGDSALTVDPATLIVADENDKDIKDAASNGKITVTGSAP

Legend:
Assay in all cases: ITC
[1] = target: CaDoc0917(R49D) (Clostridium acetobutylicum)
[2] = target: CaDoc0917(R16D) (Clostridium acetobutylicum)
[3] = target: CaDoc0917(R49D) (Clostridium acetobutylicum); remark: listed apart in the source
[4] = target: CaDoc0917(R16D) (Clostridium acetobutylicum); remark: listed apart in the source
[5] = target: B2
[6] = target: B2; remark: listed apart in the source
[7] = target: B2; remark: listed apart in the source
[8] = target: CaDoc0917(R16D/I55R) (Clostridium acetobutylicum)
[9] = target: CaDoc0917(R16D/M52V) (Clostridium acetobutylicum)
[10] = target: CaDoc0917(R49D/R22I) (Clostridium acetobutylicum)
[11] = target: CaDoc0917(R49D/V19M) (Clostridium acetobutylicum)
[12] = target: B1
[13] = target: B1; remark: listed apart in the source
[14] = target: CaDoc0917(R16D/I55R) (Clostridium acetobutylicum); remark: listed apart in the source
[15] = target: CaDoc0917(R16D/M52V) (Clostridium acetobutylicum); remark: listed apart in the source
[16] = target: CaDoc0917(R49D/R22I) (Clostridium acetobutylicum); remark: listed apart in the source
[17] = target: CaDoc0917(R16DE53Q) (Clostridium acetobutylicum)
[18] = target: CaDoc0917(R49D/V19M) (Clostridium acetobutylicum); remark: listed apart in the source
[19] = target: B1; remark: listed apart in the source

CaCohA2 E128Q/D130N (domain or fragment)
Ka [1]: 1.1e+07 M⁻¹
Ka [2]: 3.6e+06 M⁻¹
Ka [3]: 2.32e+06 M⁻¹
Ka [4]: 460000 M⁻¹

CaCohA2 E128Q (domain or fragment)
Ka [1]: 2.1e+07 M⁻¹
Ka [2]: 2.2e+07 M⁻¹
Ka [3]: 1.57e+06 M⁻¹
Ka [4]: 120000 M⁻¹

CaCohA2 D130N (domain or fragment)
Ka [1]: 2.1e+07 M⁻¹
Ka [3]: 4.24e+06 M⁻¹
Ka [4]: 320000 M⁻¹

B1
Ka [5]: 1.8e+06 M⁻¹
Ka [6]: 2.4e+07 M⁻¹
Ka [7]: 1.48e+08 M⁻¹

B2
Ka [8]: 1.32e+08 M⁻¹
Ka [1]: 4.3e+07 M⁻¹
Ka [9]: 2.9e+07 M⁻¹
Ka [10]: 2.1e+07 M⁻¹
Ka [2]: 1.03e+08 M⁻¹
Ka [11]: 5.15e+08 M⁻¹
dH [12]: -9.54 ± 0.13 kcal/mol
stoichiometry N [12]: 1.09 ± 0.011
dH [13]: -4.67 ± 0.03 kcal/mol
stoichiometry N [13]: 0.862 ± 0.003
Ka [14]: 1.04e+06 M⁻¹
Ka [3]: 1.39e+06 M⁻¹
Ka [15]: 290000 M⁻¹
Ka [16]: 180000 M⁻¹
Ka [4]: 170000 M⁻¹
Ka [17]: 1.93e+06 M⁻¹
Ka [18]: 1.98e+06 M⁻¹
dH [19]: -7.37 ± 0.04 kcal/mol
stoichiometry N [19]: 0.95 ± 0.002
